Earlier results on 1 substance are cited in article PMC9760969.

The target in this data set is CD95L (Homo sapiens) (UniProt P48023).
Sequence of UniProt P48023 (P48023 130-281): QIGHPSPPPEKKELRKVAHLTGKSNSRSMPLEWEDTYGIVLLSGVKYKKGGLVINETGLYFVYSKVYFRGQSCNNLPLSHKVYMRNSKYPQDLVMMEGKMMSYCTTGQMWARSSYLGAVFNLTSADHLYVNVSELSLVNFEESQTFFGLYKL

For the substance DR5 (from UniProt O14763), the Kd (commonly the concentration at which binding is half-saturated) is 1.23 pM.
